Source: publication PMC5714165 (Nucleic Acids Research, 2017)

Legend:
[1] = molecular target: eIF2α-NTD_(S51D) (phosphomimetic N-terminal domain of eIF2α, aa 1–184) (human); assay: fluorescence polarisation
eIF2Bβ = molecular target: T1, eIF2Bβ (human, UniProt P49770 1-351); assay: SEC
T1 sequence: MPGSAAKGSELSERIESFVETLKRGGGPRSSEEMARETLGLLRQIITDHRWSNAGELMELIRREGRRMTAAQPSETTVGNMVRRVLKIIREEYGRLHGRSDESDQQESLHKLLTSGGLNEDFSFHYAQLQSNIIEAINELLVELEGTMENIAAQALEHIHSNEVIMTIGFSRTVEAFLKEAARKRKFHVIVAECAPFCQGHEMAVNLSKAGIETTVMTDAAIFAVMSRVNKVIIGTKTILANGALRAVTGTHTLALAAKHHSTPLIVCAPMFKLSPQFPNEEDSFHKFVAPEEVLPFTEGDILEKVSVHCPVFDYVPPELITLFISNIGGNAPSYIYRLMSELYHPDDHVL

A fold higher affinity than for WT eIF2α-NTD [1] of less than 2 fold was found for “eIF2Breg (eIF2B regulatory subcomplex of eIF2Bα, β and δ), reconstituted from individual subunits (from UniProt Q14232;P49770;Q9UI10)” in this work.

B1: eIF2Bα_(I301E/L305D) mutant (designated as eIF2Bα in the paper) (natural protein)
chain: MDDKELIEYFKSQMKEDPDMASAVAAIRTLLEFLKRDKGETIQGLRANLTSAIETLCGVDSSVAVSSGGELFLRFISLASLEYSDYSKCKKIMIERGELFLRRISLSRNKIADLCHTFIKDGATILTHAYSRVVLRVLEAAVAAKKRFSVYVTESQPDLSGKKMAKALCHLNVPVTVVLDAAVGYIMEKADLVIVGAEGVVENGGIINKIGTNQMAVCAKAQNKPFYVVAESFKFVRLFPLNQQDVPDKFKYKADTLKVAQTGQDLKEEHPWVDYTAPSLITLLFTDLGVLTPSAVSDELEKLYD
B1: binds (eIF2Bβ).
